Data published in patent US20090298167A1 (Pfizer, published 2009).

T1: human gamma common chain expressed on CHO cells (human, UniProt P31785 23-369)
T1 construct: whole, on cells; Control protein; also called human IL-2R-γ common subunit; human gamma (γ) common chain
T1 sequence (looked up): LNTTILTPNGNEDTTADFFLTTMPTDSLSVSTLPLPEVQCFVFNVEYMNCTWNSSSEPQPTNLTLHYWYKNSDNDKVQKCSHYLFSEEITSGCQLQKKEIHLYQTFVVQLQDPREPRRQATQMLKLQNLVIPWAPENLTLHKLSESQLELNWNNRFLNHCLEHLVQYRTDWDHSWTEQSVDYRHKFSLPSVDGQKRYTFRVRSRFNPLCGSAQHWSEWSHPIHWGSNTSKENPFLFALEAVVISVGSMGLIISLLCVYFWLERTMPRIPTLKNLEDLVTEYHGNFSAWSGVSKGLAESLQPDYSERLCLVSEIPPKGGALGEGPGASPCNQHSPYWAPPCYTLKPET


How the values were obtained:
[1] = biological target: murine IL-21R expressed on cells (murine, UniProt Q9JHX3 20-529); test: cell-based or functional assay
[2] = biological target: T2, human IL-21R expressed on cells (human, UniProt Q9HBE5 20-538); test: cell-based or functional assay
[3] = biological target: T3, rat IL-21R expressed on cells (rat); test: cell ELISA on transfected CHO cells, 13 nM IgG
T3 construct: whole, on cells; Transiently transfected CHO-PA-Dukx cells
Experimental: (§1) A subset of binding proteins was tested for binding to rat, cynomolgus monkey, human IL-21R, or human IL-2R-γ common subunit expressed transiently on the surfaces of CHO-PA-Dukx cells. Cells were transfected 48 hr prior to the assay. On the day of the assay, cells were washed gently 5× in PBS containing 0.9 mM CaCl₂ and 0.45 mM MgCl₂ (PBS/CaMg) on an automated plate washer (Titertek, Huntsville, Ala.), and blocked for 1 hr at RT in PBS/CaMg/5% nonfat dry milk. Conditioned media from transiently expressed anti-IL-21R IgGs were serially diluted in blocking buffer and added to the cells in the blocked plates for 1 hr at RT. Cells were washed 5× with PBS/CaMg and then incubated with horseradish peroxidase-conjugated anti-human IgG for 1 hr at RT. Cells were then washed 10× in PBS/CaMg and all of the wash buffer was removed. Cells were incubated with 100 μl TMB until the color reaction reached saturation, stopped with 100 μl of 0.18 M H₂SO₄, and read at A450 on a Perkin Elmer ENVISION™ plate reader.

[4] = biological target: T4, cynomolgus monkey IL-21R expressed on CHO cells (cynomolgus monkey); test: cell ELISA on transfected CHO cells, 13 nM IgG
T4 construct: whole, on cells
Experimental: as §1

[5] = biological target: T1, human gamma common chain expressed on …; test: cell ELISA on transfected CHO cells, 13 nM IgG
Experimental: as §1

[6] = biological target: T2, human IL-21R expressed on cells; test: cell ELISA on transfected CHO cells, 13 nM IgG
Experimental: as §1

T2 sequence (Q9HBE5 20-538 limits assumed): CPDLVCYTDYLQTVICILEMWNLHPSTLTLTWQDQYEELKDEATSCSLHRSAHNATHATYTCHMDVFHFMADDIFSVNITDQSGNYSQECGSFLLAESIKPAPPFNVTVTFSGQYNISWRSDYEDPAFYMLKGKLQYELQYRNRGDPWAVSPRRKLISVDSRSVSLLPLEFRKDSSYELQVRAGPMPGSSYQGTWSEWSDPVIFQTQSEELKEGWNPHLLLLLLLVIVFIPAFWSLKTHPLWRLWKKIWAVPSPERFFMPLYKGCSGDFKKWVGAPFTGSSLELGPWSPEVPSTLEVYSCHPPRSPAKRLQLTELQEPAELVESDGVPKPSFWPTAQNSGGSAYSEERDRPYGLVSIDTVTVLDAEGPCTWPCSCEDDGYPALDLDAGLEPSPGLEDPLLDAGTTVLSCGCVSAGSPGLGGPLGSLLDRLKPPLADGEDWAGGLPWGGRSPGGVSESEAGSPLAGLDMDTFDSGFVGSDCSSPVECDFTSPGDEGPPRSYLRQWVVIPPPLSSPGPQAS
Chain of murine IL-21R expressed on cells (Q9JHX3 20-529 limits assumed): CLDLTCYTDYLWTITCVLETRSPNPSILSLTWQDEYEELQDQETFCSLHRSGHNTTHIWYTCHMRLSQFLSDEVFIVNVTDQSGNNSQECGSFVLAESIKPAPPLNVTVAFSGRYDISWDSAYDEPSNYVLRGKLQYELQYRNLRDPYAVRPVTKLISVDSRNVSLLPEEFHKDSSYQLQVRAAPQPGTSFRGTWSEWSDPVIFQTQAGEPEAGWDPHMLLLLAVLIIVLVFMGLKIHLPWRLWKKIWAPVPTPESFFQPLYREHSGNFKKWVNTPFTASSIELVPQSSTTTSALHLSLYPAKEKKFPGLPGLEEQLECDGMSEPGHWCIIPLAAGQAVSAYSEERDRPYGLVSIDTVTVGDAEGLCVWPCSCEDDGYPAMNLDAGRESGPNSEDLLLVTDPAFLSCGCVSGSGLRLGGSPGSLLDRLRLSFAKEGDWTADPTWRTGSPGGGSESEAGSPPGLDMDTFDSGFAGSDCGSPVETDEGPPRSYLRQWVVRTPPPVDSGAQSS

Murine IL-21R-BaF3 Proliferation IC50 [1] | Human IL-21R-BaF3 Proliferation IC50 [2] | Human IL-21R-TF1 Proliferation IC50 [2] | A450 at 13 nM Ab in cell ELISA [3] | A450 at 13 nM Ab in cell ELISA [4] | A450 at 13 nM Ab in cell ELISA [5] | A450 at 13 nM Ab in cell ELISA [6] | Binder
0.079 nM | 0.98 nM | 4 nM | 1.18 A450 | 1.34 A450 | 0.108 A450 | 1.36 A450 | AbK (antibody, human IgG1, V domains shown, Full-length human IgG1 / human lambda, transient, conditioned medium; Framework limits derived; also called VH3/VL3) VH: QVQLQESGPGLVKPSETLSLTCAVSGYSISSGYYWGWIRQPPGKGLEWIGSISHTGNTYYNPPLKSRVTISVDTSKNQFSLKLSSVTAADTAVYYCARFMGFGRPEYWGQGTLVTVSS VL: SSELTQDPAVSVALGQTVRITCQGDSLRTYYASWYQQKPGQAPVLVIYGKHKRPSGIPDRFSGSSSGNTASLTITGAQAEDEADYYCVSRAVVGNPHVLFGGGTQLTVL
0.125 nM | 1.08 nM | 4.22 nM | 0.78 A450 | 1.45 A450 |  | 1.2 A450 | AbM (antibody, human IgG1, V domains shown, Full-length human IgG1 / human lambda, transient, conditioned medium; Framework limits derived; also called VH6/VL13) VH: QVQLQESGPGLVKPSETLSLTCAVSGYSISSGYYWGWIRQPPGKGLEWIGSISHTGNTYYNPPLKSRVTISVDTSKNQFSLKLSSVTAADTAVYYCARFFGFGRPEYWGQGTLVTVSS VL: SSELTQDPAVSVALGQTVRITCQGDSLRTYYASWYQQKPGQAPVLVIYGKHKRPSGIPDRFSGSSSGNTASLTITGAQAEDEADYYCVTRNRYGNPHVLFGGGTQLTVL
0.224 nM | 1 nM | 3.8 nM | 1.09 A450 | 1.21 A450 | 0.107 A450 | 1.24 A450 | AbI (antibody, human IgG1, V domains shown, Full-length human IgG1 / human lambda, transient, conditioned medium; Framework limits derived; also called VHP/VL24) VH: QVQLQESGPGLVKPSETLSLTCAVSGYSISSGYYWGWIRQPPGKGLEWIGSISHTGNTYYNPPLKSRVTISVDTSKNQFSLKLSSVTAADTAVYYCARGGGISRPEYWGQGTLVTVSS VL: SSELTQDPAVSVALGQTVRITCQGDSLRTYYASWYQQKPGQAPVLVIYGKHKRPSGIPDRFSGSSSGNTASLTITGAQAEDEADYYCIARSNKGNPHVLFGGGTQLTVL
0.327 nM | 0.94 nM | 3.64 nM | 1.1 A450 | 1.32 A450 |  | 1.35 A450 | AbH (antibody, human IgG1, V domains shown, Full-length human IgG1 / human lambda, transient, conditioned medium; Framework limits derived; also called VHP/VL19) VH: QVQLQESGPGLVKPSETLSLTCAVSGYSISSGYYWGWIRQPPGKGLEWIGSISHTGNTYYNPPLKSRVTISVDTSKNQFSLKLSSVTAADTAVYYCARGGGISRPEYWGQGTLVTVSS VL: SSELTQDPAVSVALGQTVRITCQGDSLRTYYASWYQQKPGQAPVLVIYGKHKRPSGIPDRFSGSSSGNTASLTITGAQAEDEADYYCVARAVRGNPHVLFGGGTQLTVL
0.435 nM | 0.5 nM | 1.59 nM | 0.702 A450 | 1.5 A450 | 0.136 A450 | 1.21 A450 | AbN (antibody, human IgG1, V domains shown, Full-length human IgG1 / human lambda, transient, conditioned medium; Framework limits derived; also called VH6/VL24) VH: QVQLQESGPGLVKPSETLSLTCAVSGYSISSGYYWGWIRQPPGKGLEWIGSISHTGNTYYNPPLKSRVTISVDTSKNQFSLKLSSVTAADTAVYYCARFFGFGRPEYWGQGTLVTVSS VL: SSELTQDPAVSVALGQTVRITCQGDSLRTYYASWYQQKPGQAPVLVIYGKHKRPSGIPDRFSGSSSGNTASLTITGAQAEDEADYYCIARSNKGNPHVLFGGGTQLTVL
0.4 nM | 0.65 nM | 4.6 nM | 1.26 A450 | 1.27 A450 | 0.126 A450 | 1.22 A450 | AbJ (antibody, human IgG1, V domains shown, Full-length human IgG1 / human lambda, transient, conditioned medium; Framework limits derived; also called VH3/VLP) VH: QVQLQESGPGLVKPSETLSLTCAVSGYSISSGYYWGWIRQPPGKGLEWIGSISHTGNTYYNPPLKSRVTISVDTSKNQFSLKLSSVTAADTAVYYCARFMGFGRPEYWGQGTLVTVSS VL: SSELTQDPAVSVALGQTVRITCQGDSLRTYYASWYQQKPGQAPVLVIYGKHKRPSGIPDRFSGSSSGNTASLTITGAQAEDEADYYCNSRDSSGNPHVLFGGGTQLTVL

More lines, now with the values behind:

Binder | Murine IL-21R-BaF3 Proliferation IC50 [1] | Human IL-21R-BaF3 Proliferation IC50 [2] | Human IL-21R-TF1 Proliferation IC50 [2] | A450 at 13 nM Ab in cell ELISA [3] | A450 at 13 nM Ab in cell ELISA [4] | A450 at 13 nM Ab in cell ELISA [5] | A450 at 13 nM Ab in cell ELISA [6]
AbA (antibody, human IgG1, V domains shown, Full-length human IgG1 / human lambda, transient, conditioned medium; Framework limits derived; also called VHP/VL2) VH: QVQLQESGPGLVKPSETLSLTCAVSGYSISSGYYWGWIRQPPGKGLEWIGSISHTGNTYYNPPLKSRVTISVDTSKNQFSLKLSSVTAADTAVYYCARGGGISRPEYWGQGTLVTVSS VL: SSELTQDPAVSVALGQTVRITCQGDSLRTYYASWYQQKPGQAPVLVIYGKHKRPSGIPDRFSGSSSGNTASLTITGAQAEDEADYYCVARSVVGNPHVLFGGGTQLTVL | 0.08 nM | 0.97 nM | 3.8 nM | 1.12 A450 | 1.35 A450 | 0.111 A450 | 1.2 A450
AbE (antibody, human IgG1, V domains shown, Full-length human IgG1 / human lambda, transient, conditioned medium; Framework limits derived; also called VHP/VL14) VH: QVQLQESGPGLVKPSETLSLTCAVSGYSISSGYYWGWIRQPPGKGLEWIGSISHTGNTYYNPPLKSRVTISVDTSKNQFSLKLSSVTAADTAVYYCARGGGISRPEYWGQGTLVTVSS VL: SSELTQDPAVSVALGQTVRITCQGDSLRTYYASWYQQKPGQAPVLVIYGKHKRPSGIPDRFSGSSSGNTASLTITGAQAEDEADYYCMARSRKGNPHVLFGGGTQLTVL | 0.04 nM | 0.56 nM | 2.28 nM | 1.11 A450 | 1.42 A450 |  | 1.26 A450
AbC (antibody, human IgG1, V domains shown, Full-length human IgG1 / human lambda, transient, conditioned medium; Framework limits derived; also called VHP/VL11) VH: QVQLQESGPGLVKPSETLSLTCAVSGYSISSGYYWGWIRQPPGKGLEWIGSISHTGNTYYNPPLKSRVTISVDTSKNQFSLKLSSVTAADTAVYYCARGGGISRPEYWGQGTLVTVSS VL: SSELTQDPAVSVALGQTVRITCQGDSLRTYYASWYQQKPGQAPVLVIYGKHKRPSGIPDRFSGSSSGNTASLTITGAQAEDEADYYCSSRSRHGNPHVLFGGGTQLTVL | 0.03 nM | 0.82 nM | 3.36 nM | 0.999 A450 | 1.28 A450 | 0.137 A450 | 1.22 A450
AbF (antibody, human IgG1, V domains shown, Full-length human IgG1 / human lambda, transient, conditioned medium; Framework limits derived; also called VHP/VL17) VH: QVQLQESGPGLVKPSETLSLTCAVSGYSISSGYYWGWIRQPPGKGLEWIGSISHTGNTYYNPPLKSRVTISVDTSKNQFSLKLSSVTAADTAVYYCARGGGISRPEYWGQGTLVTVSS VL: SSELTQDPAVSVALGQTVRITCQGDSLRTYYASWYQQKPGQAPVLVIYGKHKRPSGIPDRFSGSSSGNTASLTITGAQAEDEADYYCSTRSRKGNPHVLFGGGTQLTVL | 0.304 nM | 0.54 nM | 2.41 nM | 1 A450 | 1.46 A450 |  | 1.35 A450
AbB (antibody, human IgG1, V domains shown, Full-length human IgG1 / human lambda, transient, conditioned medium; Framework limits derived; also called VHP/VL3) VH: QVQLQESGPGLVKPSETLSLTCAVSGYSISSGYYWGWIRQPPGKGLEWIGSISHTGNTYYNPPLKSRVTISVDTSKNQFSLKLSSVTAADTAVYYCARGGGISRPEYWGQGTLVTVSS VL: SSELTQDPAVSVALGQTVRITCQGDSLRTYYASWYQQKPGQAPVLVIYGKHKRPSGIPDRFSGSSSGNTASLTITGAQAEDEADYYCVSRAVVGNPHVLFGGGTQLTVL | 0.421 nM | 1.14 nM | 3.34 nM | 1.09 A450 | 1.33 A450 | 0.107 A450 | 1.15 A450
